These substances were tested against Human FcRn with human β2M on MDCK II clone 15 cells (human) (UniProt P55899) (assay: cell-based or functional assay).

| Substance | Blockade of IgG recycling (% inhibition at 100 µg/ml) | Blockade of IgG intracellular uptake EC50 | Blockade of IgG recycling EC50 |
| --- | --- | --- | --- |
| IgG1 IgM tail-piece, V308F (Fc-multimer) (Fc fusion) |  | 0.12 µg/mL | 0.073 µg/mL |
| IgG1 IgM tail-piece, Wild-type (Fc-multimer) (Fc fusion) |  | 4.4 µg/mL | 0.33 µg/mL |
| IgG4 IgM tail-piece, V308F (Fc-multimer) (Fc fusion) |  | 0.42 µg/mL | 0.56 µg/mL |
| IgG4 IgM tail-piece, V308P (Fc-multimer) (Fc fusion) |  | 0.51 µg/mL | 0.42 µg/mL |

Other lines, results leading:

| Blockade of IgG recycling (% inhibition at 100 µg/ml) | Blockade of IgG intracellular uptake EC50 | Blockade of IgG recycling EC50 | Substance |
| --- | --- | --- | --- |
| 45 |  |  | IgG1 IgM tail-piece, H310L (Fc-multimer) (Fc fusion) |
|  | 0.54 µg/mL | 0.35 µg/mL | IgG1 IgM tail-piece, T307A (Fc-multimer) (Fc fusion) |
|  | 0.34 µg/mL | 0.55 µg/mL | IgG1 IgM tail-piece, V308P (Fc-multimer) (Fc fusion) |
|  | 0.5 µg/mL |  | IgG4 IgM tail-piece, T307A (Fc-multimer) (Fc fusion) |
|  | 5.9 µg/mL | 1 µg/mL | IgG4 IgM tail-piece, Wild-type (Fc-multimer) (Fc fusion) |

Each substance was assayed against Human FcRn with human β2M on MDCK II clone 15 cells (human) (UniProt P55899) (assay: not given).

| EC50, inhibition of FcRn mediated IgG recycling (cell lysates), MDCK II clone 15 cells, biotinylated human IgG, MSD detection | EC50, inhibition of FcRn mediated IgG recycling (culture media), MDCK II clone 15 cells, biotinylated human IgG, MSD detection | Substance |
| --- | --- | --- |
| 0.37 µg/mL | 0.33 µg/mL | IgG1 Fc IgM tp L309 (wild type IgG1 Fc-multimer) (from UniProt P0DOX5 228-449) (Fc fusion) |
| 7.28 µg/mL |  | human IgG1 Fc-multimer IgM tp L309C (from UniProt P0DOX5 228-449) (Fc fusion) |

— patent US20170081406A1
